T1: recombinant human activated Factor VII (FVIIa) (human, UniProt P08709 61-212; P08709 213-466, ten glutamate residues of the Gla domain may be gamma-carboxylated)
T1 construct: chains tethered by a disulfide bond; also called Factor VIIa; rFVIIa
T1 sequence 1: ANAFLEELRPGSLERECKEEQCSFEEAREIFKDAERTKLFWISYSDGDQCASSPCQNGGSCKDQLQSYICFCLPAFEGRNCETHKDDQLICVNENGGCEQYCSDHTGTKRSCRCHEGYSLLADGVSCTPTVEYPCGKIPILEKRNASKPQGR
T1 sequence 2: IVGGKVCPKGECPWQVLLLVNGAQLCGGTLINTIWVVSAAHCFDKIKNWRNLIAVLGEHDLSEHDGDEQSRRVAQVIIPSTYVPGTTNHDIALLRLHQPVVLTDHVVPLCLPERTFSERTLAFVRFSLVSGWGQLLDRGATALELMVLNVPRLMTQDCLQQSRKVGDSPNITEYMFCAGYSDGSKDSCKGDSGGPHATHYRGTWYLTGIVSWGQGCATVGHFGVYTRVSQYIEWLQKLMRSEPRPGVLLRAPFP

B1: VH SEQ ID NO 634 / VL SEQ ID NO 318 (antibody, IgG4, V domains shown)
VH: QVQLQESGPGLVKPSQTLSLTCTVSGYSISSDSAWSWIRQPPGKGLEWIGYIQYSGSTNYNPSLKSRVTISRDTSKNQFSLKLSSVTAADTAVYYCARSVNYYGNSFAVGYWGQGTLVTVSS
VL: EIVLTQSPATLSLSPGERATLSCRASQGISDYLHWYQQKPGEAPRLLIKYTSQPATGIPARFSGSGSGTDFTLTISSLEPEDFAVYYCQNGHSFPLTFGQGTKLEIK
notes: humanized 11F2; IgG4 S228P/kappa
B2: VH SEQ ID NO 642 / VL SEQ ID NO 462 (antibody, IgG4, V domains shown)
VH: B1 VH with Q53Y, R72V, L117S
VL: B1 VL with I29V, E42Q, T51A, Q100A
notes: as for B1
B3: VH SEQ ID NO 634 / VL SEQ ID NO 414 (antibody, IgG4, V domains shown)
VH: B1 VH
VL: B1 VL with I29V, H34A, E42Q, T51A
notes: as for B1
B4: VH SEQ ID NO 634 / VL SEQ ID NO 454 (antibody, IgG4, V domains shown)
VH: B1 VH
VL: B1 VL with I29V, T51A
notes: as for B1
B5: VH SEQ ID NO 642 / VL SEQ ID NO 478 (antibody, IgG4, V domains shown)
VH: B1 VH with Q53Y, R72V, L117S
VL: B1 VL with I29V, E42Q, T51A, N90Q
notes: as for B1
B6: VH SEQ ID NO 634 / VL SEQ ID NO 390 (antibody, IgG4, V domains shown)
VH: B1 VH
VL: B1 VL with I29V, H34A, T51A
notes: as for B1
B7: VH SEQ ID NO 634 / VL SEQ ID NO 430 (antibody, IgG4, V domains shown)
VH: B1 VH
VL: B1 VL with I29V, H34A, E42Q, T51A, A84G
notes: as for B1
B8: VH SEQ ID NO 642 / VL SEQ ID NO 326 (antibody, IgG4, V domains shown)
VH: B1 VH with Q53Y, R72V, L117S
VL: B1 VL with A84G, Q100A, I106L
notes: as for B1
B9: VH SEQ ID NO 634 / VL SEQ ID NO 462 (antibody, IgG4, V domains shown)
VH: B1 VH
VL: B1 VL with I29V, E42Q, T51A, Q100A
notes: as for B1
B10: VH SEQ ID NO 642 / VL SEQ ID NO 470 (antibody, IgG4, V domains shown)
VH: B1 VH with Q53Y, R72V, L117S
VL: B1 VL with I29V, E42Q, T51A
notes: as for B1
B11: VH SEQ ID NO 642 / VL SEQ ID NO 310 (antibody, IgG4, V domains shown)
VH: B1 VH with Q53Y, R72V, L117S
VL: B1 VL with H34A, E42Q, T51A
notes: as for B1
B12: VH SEQ ID NO 634 / VL SEQ ID NO 382 (antibody, IgG4, V domains shown)
VH: B1 VH
VL: B1 VL with I29L, T51A
notes: as for B1
B13: VH SEQ ID NO 634 / VL SEQ ID NO 334 (antibody, IgG4, V domains shown)
VH: B1 VH
VL: B1 VL with E42Q, T51A
notes: as for B1
B14: VH SEQ ID NO 634 / VL SEQ ID NO 438 (antibody, IgG4, V domains shown)
VH: B1 VH
VL: B1 VL with I29V, H34A, E42Q, T51A, F83V
notes: as for B1
B15: VH SEQ ID NO 642 / VL SEQ ID NO 502 (antibody, IgG4, V domains shown)
VH: B1 VH with Q53Y, R72V, L117S
VL: B1 VL with I29V, E42Q
notes: as for B1
B16: VH SEQ ID NO 642 / VL SEQ ID NO 430 (antibody, IgG4, V domains shown)
VH: B1 VH with Q53Y, R72V, L117S
VL: B1 VL with I29V, H34A, E42Q, T51A, A84G
notes: as for B1
B17: VH SEQ ID NO 642 / VL SEQ ID NO 358 (antibody, IgG4, V domains shown)
VH: B1 VH with Q53Y, R72V, L117S
VL: B1 VL with E42Q
notes: as for B1
B18: VH SEQ ID NO 634 / VL SEQ ID NO 494 (antibody, IgG4, V domains shown)
VH: B1 VH
VL: B1 VL with I29V, E42Q, T51A, F83V
notes: as for B1
B19: VH SEQ ID NO 642 / VL SEQ ID NO 486 (antibody, IgG4, V domains shown)
VH: B1 VH with Q53Y, R72V, L117S
VL: B1 VL with I29V, E42Q, T51A, A84G
notes: as for B1
B20: VH SEQ ID NO 634 / VL SEQ ID NO 342 (antibody, IgG4, V domains shown)
VH: B1 VH
VL: B1 VL with E42Q, T69R, Q100A, I106L
notes: as for B1
B21: VH SEQ ID NO 642 / VL SEQ ID NO 438 (antibody, IgG4, V domains shown)
VH: B1 VH with Q53Y, R72V, L117S
VL: B1 VL with I29V, H34A, E42Q, T51A, F83V
notes: as for B1
B22: VH SEQ ID NO 634 / VL SEQ ID NO 398 (antibody, IgG4, V domains shown)
VH: B1 VH
VL: B1 VL with I29V, H34A
notes: as for B1
B23: VH SEQ ID NO 634 / VL SEQ ID NO 366 (antibody, IgG4, V domains shown)
VH: B1 VH
VL: B1 VL with I29L, H34A, T51A
notes: as for B1
B24: VH SEQ ID NO 642 / VL SEQ ID NO 494 (antibody, IgG4, V domains shown)
VH: B1 VH with Q53Y, R72V, L117S
VL: B1 VL with I29V, E42Q, T51A, F83V
notes: as for B1
B25: VH SEQ ID NO 634 / VL SEQ ID NO 374 (antibody, IgG4, V domains shown)
VH: B1 VH
VL: B1 VL with I29L, H34A, E42Q
notes: as for B1
B26: VH SEQ ID NO 634 / VL SEQ ID NO 502 (antibody, IgG4, V domains shown)
VH: B1 VH
VL: B1 VL with I29V, E42Q
notes: as for B1
B27: VH SEQ ID NO 634 / VL SEQ ID NO 470 (antibody, IgG4, V domains shown)
VH: B1 VH
VL: B1 VL with I29V, E42Q, T51A
notes: as for B1
B28: VH SEQ ID NO 634 / VL SEQ ID NO 358 (antibody, IgG4, V domains shown)
VH: B1 VH
VL: B1 VL with E42Q
notes: as for B1
B29: VH SEQ ID NO 634 / VL SEQ ID NO 422 (antibody, IgG4, V domains shown)
VH: B1 VH
VL: B1 VL with I29V, H34A, E42Q, T51A, N90Q
notes: as for B1
B30: VH SEQ ID NO 642 / VL SEQ ID NO 318 (antibody, IgG4, V domains shown)
VH: B1 VH with Q53Y, R72V, L117S
VL: B1 VL
notes: as for B1
B31: VH SEQ ID NO 642 / VL SEQ ID NO 350 (antibody, IgG4, V domains shown)
VH: B1 VH with Q53Y, R72V, L117S
VL: B1 VL with E42Q, Q100A, I106L
notes: as for B1
B32: VH SEQ ID NO 634 / VL SEQ ID NO 350 (antibody, IgG4, V domains shown)
VH: B1 VH
VL: B1 VL with E42Q, Q100A, I106L
notes: as for B1
B33: VH SEQ ID NO 642 / VL SEQ ID NO 334 (antibody, IgG4, V domains shown)
VH: B1 VH with Q53Y, R72V, L117S
VL: B1 VL with E42Q, T51A
notes: as for B1
B34: VH SEQ ID NO 634 / VL SEQ ID NO 446 (antibody, IgG4, V domains shown)
VH: B1 VH
VL: B1 VL with I29V, H34A, E42Q
notes: as for B1
B35: VH SEQ ID NO 634 / VL SEQ ID NO 486 (antibody, IgG4, V domains shown)
VH: B1 VH
VL: B1 VL with I29V, E42Q, T51A, A84G
notes: as for B1
B36: VH SEQ ID NO 634 / VL SEQ ID NO 326 (antibody, IgG4, V domains shown)
VH: B1 VH
VL: B1 VL with A84G, Q100A, I106L
notes: as for B1
B37: VH SEQ ID NO 634 / VL SEQ ID NO 406 (antibody, IgG4, V domains shown)
VH: B1 VH
VL: B1 VL with I29V, H34A, E42Q, T51A, Q100A
notes: as for B1
B38: VH SEQ ID NO 634 / VL SEQ ID NO 478 (antibody, IgG4, V domains shown)
VH: B1 VH
VL: B1 VL with I29V, E42Q, T51A, N90Q
notes: as for B1
B39: VH SEQ ID NO 642 / VL SEQ ID NO 382 (antibody, IgG4, V domains shown)
VH: B1 VH with Q53Y, R72V, L117S
VL: B1 VL with I29L, T51A
notes: as for B1
B40: VH SEQ ID NO 642 / VL SEQ ID NO 454 (antibody, IgG4, V domains shown)
VH: B1 VH with Q53Y, R72V, L117S
VL: B1 VL with I29V, T51A
notes: as for B1
B41: VH SEQ ID NO 650 / VL SEQ ID NO 310 (antibody, IgG4, V domains shown)
VH: B1 VH with G45K, Y111P
VL: B1 VL with H34A, E42Q, T51A
notes: as for B1
B42: VH SEQ ID NO 642 / VL SEQ ID NO 342 (antibody, IgG4, V domains shown)
VH: B1 VH with Q53Y, R72V, L117S
VL: B1 VL with E42Q, T69R, Q100A, I106L
notes: as for B1

Where a chain is given by its changes, count along the chain named. Names may count otherwise.

For orientation: Kd means the free concentration of one partner at which half of the binding sites on the other are occupied at equilibrium, for simple one-to-one binding.

This assay deals with T1, recombinant human activated Factor VII …. The assay can be described thus: BLI (Fortebio). In general terms: Biolayer interferometry detects binding as a change in optical thickness at a sensor tip.
Turning to B1, the Kd amounted to 0.86 nM.
As to B2, the Kd amounted to 52 nM.
To B3 belongs 4.6 nM; to B4, 1.2 nM.
For B5 the value was 11 nM; for B6, 4.3 nM.
To B7 belongs 4.9 nM; to B8, 23 nM.
On to B9, for which the Kd was 1.2 nM.
To B10 belongs 47 nM; to B11, 1600 nM; to B12, 1.2 nM.
For B13 the value was 1 nM; for B14, 4.8 nM.
On to B15, for which the Kd came to 4.6 nM.
For B16 the value was 540 nM; for B17, 320 nM.
To B18 belongs 1.3 nM.
To B19 belongs 7.7 nM; to B20, 1 nM; to B21, 33 nM.
On to B22, for which the Kd was found to be 8.2 nM.
Regarding B23, the dissociation constant (Kd) was 3.1 nM.
For B24 the value was 10 nM; for B25, 4.5 nM; for B26, 1.3 nM.
For B27 the value was 1 nM; for B28, 0.82 nM.
To B29 belongs 26 nM.
On to B30, for which the Kd turned out to be 81 nM.
B31: the Kd came to 120 nM.
For B32 the value was 1.2 nM.
For B33 the value was 1000 nM; for B34, 7.7 nM; for B35, 1.4 nM.
To B36 belongs 0.9 nM; to B37, 4.2 nM; to B38, 1.8 nM.
Take B39: the Kd worked out at 600 nM.
For B40 the value was 25 nM; for B41, 16 nM.
To B42 belongs 40 nM.

Values taken from US20220064329A1 (Novo Nordisk, published 2022).
